# B1: PTH: parathyroid hormone; PTHR1 agonist, form used in BRET assays not specified (peptide, UniProt P01270 32-115, looked up)
# Parathyroid hormone: SVSEIQLMHNLGKHLNSMERVEWLRKKLQDVHNFVALGAPLAPRDAGSQRPRKKEDNVLVESHEKSLGEADKADVNVLTKAKSQ
# modifications: Parathyroid hormone
# notes: parathyroid hormone; PTHR1 agonist, form used in BRET assays not specified
# Experiments:
# [1] = test system: ADAM19 cleavage of PTHR1; experiment: PTHR1 cleavage by ADAM19, Western blot after PNGase F de-glycosylation; assay type: cell-based, human; details: HEK-293T (text: HEK 293) cells, unmodified PTHR1 + ADAM19, 10 μM batimastat, inhibitors added 24 h, lysis 36 h after transfection, Western blot anti PTHR1 573–593
# Description: HEK-293T cells were seeded onto 12-well plates and transfected with plasmids encoding human P[…], ADAM-19 using TransIT-293 (Mirus) according to the manufacturer's instructions. Protease inhibitors were added to the medium 24 h after transfection as indicated. 36 h after transfection, cells were washed with PBS and lysed in ice-cold radioimmune precipitation assay buffer (50 mM Tris-HCl, pH 7.5, 150 mM NaCl, 1% [wt/vol] Nonidet P-40, 0.1% [wt/vol] SDS, 0.5% [wt/vol] sodium deoxycholate, 5 mM EDTA) supplemented with a mix of protease inhibitors (5 μM leupeptin, 5 μM pepstatin-A, 1 mM 4-(2-aminoethyl) benzenesulfonyl fluoride). The lysates were cleared by centrifugation at 20,000g for 30 min at 4°C. For deglycosylation, lysates were incubated with 40 mM dethiothreitol and 0.5% SDS for 90 min at 25°C. Thereafter, 1 mg/ml PNGase F was added, and samples were incubated for 16 h at 4°C. Proteins were separated by 8% or 10% SDS-PAGE and transferred onto PVDF membranes ([…], #T830.1; Carl Roth). The membranes were blocked in 5% skimmed milk powder (Sigma-Aldrich) or in casein solution (Sigma-Aldrich) for 1 h at RT. […] Proteins were detected either after short incubation in Immobilon Western ECL substrate (#WBKLS0500; Millipore) on an Odyssey FC device (Li-cor Biosciences) or on an Odyssey CLx scanner (Li-cor Biosciences). […]
# [2] = test system: PTHR1 (cAMP accumulation); experiment: FRET-based cAMP accumulation assay (Epac-S-H187) in U2OS cells; assay type: cell-based, human; details: 500 pM ligand
# Description: For cAMP accumulation assays, U2OS cells were seeded on Poly-D- Lysine-coated 24 mm glass cover slips in 6-well plates at a density of 1.0 × 10^6 cells/well and transfected with 1–2.4 μg cDNA per cover slip using Effectene (QIAGEN) or NEON electroporation (Thermo Fisher Scientific) according to the manufacturer’s protocol. cDNA was transfected with the EPAC-S-H187 FRET-biosensor ([Klarenbeek et al, 2015]), PTHR1-wt and ADAM19 at a ratio of 1:1:2. Fluorescence microscopy experiments were performed 48 h after transfection. For single-cell FRET imaging experiments, transfected cells on coverslips were transferred to imaging chambers (Attoflur; Thermo Fisher Scientific) and washed once and maintained in FRET imaging buffer (144 mM NaCl, 5.4 mM KCl, 2 mM CaCl2 [Carl Roth GmbH & Co. KG], 1 mM MgCl 2 [AppliChem], 10 mM HEPES [Sigma-Aldrich Chemie GmbH]; pH = 7.3). For the experiment, the cells remained at RT throughout the experiment. […]
# After selecting suitable cells at the microscope, regions of interest (single cells and a cell-free background region) were chosen and recording parameters were set using the Visiview 4.0 imaging software (Visitron Systems). Every 5 s, images of the donor and acceptor emission channels were recorded following donor excitation at 436 nm for 100 ms. […] After every experiment, direct YFP excitation at 505 nm (emission: 560 nm) was recorded as a unit of measurement for the expression level of the sensor.
# For data analysis, raw emission intensities from CFP and YFP channels were exported and corrected for background (by subtracting the emission intensities of a cell free region) and bleed-through of the donor fluorescence into the acceptor channel ([Borner et al, 2011]). FRET ratios (CFP/FRET in %) were calculated and normalized to baseline average of 10 data points before ligand addition, set to 0% and Forskolin/3-iso-butyl-1 methylxanthine (max. cAMP response, set to 100%). […]
# [3] = test system: ADAM19 / EYFP-PTHR1; experiment: ADAM19 shedding assay, EYFP-PTHR1 supernatant/cell fluorescence ratio; assay type: cell-based, human; details: HEK-293T cells, EYFP-PTHR1 + WT ADAM19; 100 μM ilomastat in DMEM from 1 h after transfection, 48 h (method: 47 h); EYFP fluorescence 500/539 nm; n = 5, t test
# Description: For fluorescence-based shedding experiments, HEK-293T cells were seeded in six-well cell culture plates at a density of 500,000 cells per well 24 h prior to transfection. Next day, cells in each well were transfected with 0.4 μg EYFP-PTHR1 plasmid and 0.8 μg ADAM19 or empty pcDNA3 vector plasmids. For the experiments in which the different ADAM:EYFP-PTHR1 ratios were examined, cells were transfected with a constant 0.3 μg EYFP-PTHR1 construct alongside with varying amounts of ADAM19 and pcDNA constructs to maintain the total DNA amount of 1.2 μg. 1 h after transfection, cells were supplemented with DMEM or with 100 μM ilomastat dissolved in DMEM. […] 96-well plate fluorescence measurements were performed using a Biotek Neo2 multi-well plate reader. EYFP intensity was measured using high lamp power settings at an excitation wavelength of 500/18 nm. Fluorescence was detected using a monochromator set to 539/20 nm for emission and a photomultiplier tube set to 120 V gain. To calculate and quantify the ADAM19-mediated shedding of PTHR1 N-terminus, background fluorescence value obtained from pure DMEM was subtracted from fluorescence values obtained from cell culture medium (Fsupernatant) and cell suspensions (Fcell), and then the ratio of background-corrected fluorescence values was calculated: Ratio = Fsupernatant/Fcell. […]
# [4] = test system: PTHR1 (β-arrestin2 recruitment); experiment: BRET β-arrestin2 recruitment to PTHR1 in SaOS cells; assay type: cell-based, human; details: SaOS (Saos2) cells; PTHR1-Nanoluc + β-arrestin2-cpVenus BRET, 37°C
# Description: (§1) U2OS, Saos2 and HEK-293T cells were transfected with Gs or Gq protein BRET biosensors ([Che et al, 2010]), PTHR1 and ADAM19 at a ratio of 1:1:2. For β-arrestin2 BRET recruitment assay, PTHR1-Nanoluc was used with β-arrestin2-cpVenus and ADAM19 at a ratio of 1:1:2 ([Nemec et al, 2022]). Combinations were transfected with Effectene (QIAGEN) or NEON electroporation (Thermo Fisher Scientific) according to the manufacturer’s protocol with a total of 1–2.4 μg of cDNA. After 24 h cells were transferred into a PDL-precoated a white-wall, white-bottomed 96-well microtiter plate, at a density of 60,000 cells/well. 24 h after the reseeding, the medium was removed, and cells were washed once with PBS with 0.1% BSA and incubated with 90 μl of a 1:1,000 (vol:vol) stock solution of furimazine in PBS buffer. 5 min later, basal reads were recorded for 4 min and subsequently, 10 μl of 10-fold ligand solution or FRET buffer was applied to each well and the stimulated reads were further recorded. Measurements were performed at 37°C using a Synergy Neo2 Plate Reader with the NanoBRET filter set, integration time per data point was set to 0.3 s and gain to 110/140. Cells were excited at 510/20 nm and fluorescence emission was recorded at 560/20 nm for quantification of expression level ([Nemec et al, 2022]).
# [5] = test system: PTHR1 (β-arrestin2 recruitment); experiment: BRET β-arrestin2 recruitment to PTHR1 in U2OS cells; assay type: cell-based, human
# Description: as §1
# [6] = test system: PTH1R; details: ref Hattersley et al, 2016; cited from earlier work
# [7] = test system: PTHR1 (Gq activation); experiment: BRET-based Gq activation by PTHR1; assay type: cell-based, human
# Description: as §1
# [8] = test system: PTHR1 (Gs activation); experiment: BRET-based Gs activation by PTHR1; assay type: cell-based, human; details: HEK-293T cells with ADAM19; Gs BRET sensor, 37°C; three independent experiments in duplicates
# Description: as §1
molecule,measurement,setting,value
CNC(=O)[C@H](Cc1ccccc1)NC(=O)[C@H](CC(C)C)[C@H](CSc1cccs1)C(=O)NO [batimastat],PTHR1 species detected with ADAM19 co-expression,[1],only the 60 kD species of PTHR1 were detected
"PTH1-34: PTHR1 ligand, BACHEM #4033364 (SVSEIQLMHNLGKHLNSMERVEWLRKKLQDVHNF; Parathyroid hormone; UniProt P01270 32-65, looked up, fragment)","increase of FRET ratio (CFP/FRET), average","[2]; U2OS cells with and without ADAM19, 0% = baseline, 100% = 10 μM Forskolin + 100 μM 3-iso-butyl-1 methylxanthine, ""in both cases""",70–80%
same,cAMP response,"[2]; U2OS cells, PTH1R + Epac-S-H187, alone and with ADAM19, single-cell FRET, RT, pH 7.3",an increase in cAMP was detected
same,difference in cAMP response with vs without ADAM19,"[2]; U2OS cells, PTH1-34 n = 96 cells on 5 days (Welch t test), PTHrP n = 76 cells on 2 days (Mann-Whitney)",no significant differences
CNC(=O)[C@H](Cc1c[nH]c2ccccc12)NC(=O)[C@@H](CC(=O)NO)CC(C)C [Ilomastat (GM6001)],inhibition of PTHR1 cleavage by ADAM19,[3],PTHR1 cleavage by ADAM19 was inhibited
B1,"β-arrestin2 recruitment to PTHR1, presence vs absence of ADAM19",[4],significantly increased β-arrestin translocation to the PTHR1 when ADAM19 was present
same,"β-arrestin2 recruitment to PTHR1, presence vs absence of ADAM19","[5]; PTHR1-Nanoluc + β-arrestin2-cpVenus BRET, 37°C, four experiments in quadruple",significantly increased β-arrestin translocation to the PTHR1 when ADAM19 was present
same,"Top of the curve (maximum efficacy), β-arrestin2 recruitment, with vs without ADAM19","[5]; three-parameter non-linear fit, extra sum of squares F test (<0.0001)",significantly different
same,agonist type at PTH1R,[6],full agonists
same,"Top of the curve (maximum efficacy), Gq, WT vs 56–63A mutant PTHR1","[7]; HEK293T with ADAM19, three-parameter non-linear fit, extra sum of squares F test (<0.0001), Fig 6B-E legend, panels not distinguished",significantly different
same,Gq-activation for WT PTHR1 compared to cleavage-protected PTHR1-56-63A mutant,"[7]; HEK-293T cells with ADAM19, Gq BRET sensor, 37°C, three independent experiments in duplicates",decreased Gq-activation
same,Gs-activation for WT PTHR1 compared to cleavage-protected PTHR1-56-63A mutant,[8],increased Gs-activation
